{
  "source": "the supplement of paper PMC9112550",
  "about": "“Optimization of the antimicrobial peptide Bac7 by deep mutational scanning” (BMC Biology, 2022);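 further: peptides expressed intracellularly from a pBAD plasmid library in pooled LB shake-flask culture, induced with 0.3% L-arabinose, DNA abundance read by NGS, three biological replicates, DESeq2 with apeglm shrinkage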",
  "system": "Escherichia coli TOP10",
  "test": "shrunken log2 fold change of peptide-encoding DNA abundance (4.5 h post-induction vs induction); higher = less antimicrobial activity (less host growth inhibition)",
  "details": "time post-induction: 4.5 h; library: site-saturation at positions 5, 18, 19, 20",
  "data": [
    {"sequence": "RRIRYRPPRLPRPRPRPMIAPRP", "values": [
      {"measurement": "shrunken log2 fold change", "value": -0.188}
    ]},
    {"sequence": "RRIRMRPPRLPRPRPRPCYKPRP", "values": [
      {"measurement": "shrunken log2 fold change", "value": -0.145}
    ]},
    {"sequence": "RRIRCRPPRLPRPRPRPTTQPRP", "values": [
      {"measurement": "shrunken log2 fold change", "value": 0.0242}
    ]},
    {"sequence": "RRIRGRPPRLPRPRPRPYQAPRP", "values": [
      {"measurement": "shrunken log2 fold change", "value": -0.119}
    ]},
    {"sequence": "RRIRPRPPRLPRPRPRPTWHPRP", "values": [
      {"measurement": "shrunken log2 fold change", "value": 0.316}
    ]},
    {"sequence": "RRIRSRPPRLPRPRPRPMFNPRP", "values": [
      {"measurement": "shrunken log2 fold change", "value": -0.258}
    ]},
    {"sequence": "RRIRYRPPRLPRPRPRPYAWPRP", "values": [
      {"measurement": "shrunken log2 fold change", "value": -0.14}
    ]},
    {"sequence": "RRIRMRPPRLPRPRPRPYRMPRP", "values": [
      {"measurement": "shrunken log2 fold change", "value": -0.219}
    ]},
    {"sequence": "RRIRMRPPRLPRPRPRPPCIPRP", "values": [
      {"measurement": "shrunken log2 fold change", "value": -0.143}
    ]},
    {"sequence": "RRIRNRPPRLPRPRPRPEGTPRP", "values": [
      {"measurement": "shrunken log2 fold change", "value": 0.105}
    ]},
    {"sequence": "RRIRGRPPRLPRPRPRPKRVPRP", "values": [
      {"measurement": "shrunken log2 fold change", "value": 0.198}
    ]},
    {"sequence": "RRIRARPPRLPRPRPRPPVLPRP", "values": [
      {"measurement": "shrunken log2 fold change", "value": 0.214}
    ]},
    {"sequence": "RRIRHRPPRLPRPRPRPENPPRP", "values": [
      {"measurement": "shrunken log2 fold change", "value": -0.277}
    ]},
    {"sequence": "RRIRNRPPRLPRPRPRPECEPRP", "values": [
      {"measurement": "shrunken log2 fold change", "value": -0.0156}
    ]},
    {"sequence": "RRIRMRPPRLPRPRPRPEFCPRP", "values": [
      {"measurement": "shrunken log2 fold change", "value": 1.18}
    ]},
    {"sequence": "RRIRMRPPRLPRPRPRPQFTPRP", "values": [
      {"measurement": "shrunken log2 fold change", "value": 0.095}
    ]},
    {"sequence": "RRIRQRPPRLPRPRPRPMDGPRP", "values": [
      {"measurement": "shrunken log2 fold change", "value": -0.199}
    ]},
    {"sequence": "RRIRFRPPRLPRPRPRPAVSPRP", "values": [
      {"measurement": "shrunken log2 fold change", "value": -0.108}
    ]},
    {"sequence": "RRIRKRPPRLPRPRPRPNRMPRP", "values": [
      {"measurement": "shrunken log2 fold change", "value": 0.00972}
    ]},
    {"sequence": "RRIRQRPPRLPRPRPRPQYHPRP", "values": [
      {"measurement": "shrunken log2 fold change", "value": -0.609}
    ]},
    {"sequence": "RRIRRRPPRLPRPRPRPWTMPRP", "values": [
      {"measurement": "shrunken log2 fold change", "value": -0.257}
    ]},
    {"sequence": "RRIRARPPRLPRPRPRPARYPRP", "values": [
      {"measurement": "shrunken log2 fold change", "value": 0.12}
    ]},
    {"sequence": "RRIRQRPPRLPRPRPRPGWLPRP", "values": [
      {"measurement": "shrunken log2 fold change", "value": 0.193}
    ]},
    {"sequence": "RRIRRRPPRLPRPRPRPNWDPRP", "values": [
      {"measurement": "shrunken log2 fold change", "value": -0.0988}
    ]},
    {"sequence": "RRIRARPPRLPRPRPRPERQPRP", "values": [
      {"measurement": "shrunken log2 fold change", "value": 1.13}
    ]},
    {"sequence": "RRIRTRPPRLPRPRPRPYEWPRP", "values": [
      {"measurement": "shrunken log2 fold change", "value": -0.139}
    ]},
    {"sequence": "RRIRERPPRLPRPRPRPIACPRP", "values": [
      {"measurement": "shrunken log2 fold change", "value": -0.23}
    ]},
    {"sequence": "RRIRWRPPRLPRPRPRPTCLPRP", "values": [
      {"measurement": "shrunken log2 fold change", "value": 0.324}
    ]},
    {"sequence": "RRIRQRPPRLPRPRPRPDQSPRP", "values": [
      {"measurement": "shrunken log2 fold change", "value": -0.222}
    ]},
    {"sequence": "RRIRARPPRLPRPRPRPTGRPRP", "values": [
      {"measurement": "shrunken log2 fold change", "value": 0.215}
    ]},
    {"sequence": "RRIRCRPPRLPRPRPRPGLTPRP", "values": [
      {"measurement": "shrunken log2 fold change", "value": 0.108}
    ]},
    {"sequence": "RRIRYRPPRLPRPRPRPNMEPRP", "values": [
      {"measurement": "shrunken log2 fold change", "value": -0.618}
    ]},
    {"sequence": "RRIRLRPPRLPRPRPRPFGCPRP", "values": [
      {"measurement": "shrunken log2 fold change", "value": -0.138}
    ]},
    {"sequence": "RRIRCRPPRLPRPRPRPIVCPRP", "values": [
      {"measurement": "shrunken log2 fold change", "value": -0.272}
    ]},
    {"sequence": "RRIRCRPPRLPRPRPRPHHFPRP", "values": [
      {"measurement": "shrunken log2 fold change", "value": -0.219}
    ]},
    {"sequence": "RRIRARPPRLPRPRPRPWKNPRP", "values": [
      {"measurement": "shrunken log2 fold change", "value": -0.145}
    ]},
    {"sequence": "RRIRGRPPRLPRPRPRPYYKPRP", "values": [
      {"measurement": "shrunken log2 fold change", "value": -0.607}
    ]},
    {"sequence": "RRIRERPPRLPRPRPRPNSRPRP", "values": [
      {"measurement": "shrunken log2 fold change", "value": -0.481}
    ]},
    {"sequence": "RRIRCRPPRLPRPRPRPRVTPRP", "values": [
      {"measurement": "shrunken log2 fold change", "value": 0.23}
    ]},
    {"sequence": "RRIRFRPPRLPRPRPRPIWLPRP", "values": [
      {"measurement": "shrunken log2 fold change", "value": -0.17}
    ]},
    {"sequence": "RRIRHRPPRLPRPRPRPKECPRP", "values": [
      {"measurement": "shrunken log2 fold change", "value": -0.212}
    ]},
    {"sequence": "RRIRFRPPRLPRPRPRPHMSPRP", "values": [
      {"measurement": "shrunken log2 fold change", "value": 0.0344}
    ]},
    {"sequence": "RRIRHRPPRLPRPRPRPANMPRP", "values": [
      {"measurement": "shrunken log2 fold change", "value": -0.126}
    ]},
    {"sequence": "RRIRGRPPRLPRPRPRPECHPRP", "values": [
      {"measurement": "shrunken log2 fold change", "value": 1.62}
    ]},
    {"sequence": "RRIRPRPPRLPRPRPRPHHYPRP", "values": [
      {"measurement": "shrunken log2 fold change", "value": -0.37}
    ]},
    {"sequence": "RRIRDRPPRLPRPRPRPSQCPRP", "values": [
      {"measurement": "shrunken log2 fold change", "value": -0.034}
    ]},
    {"sequence": "RRIRTRPPRLPRPRPRPYSIPRP", "values": [
      {"measurement": "shrunken log2 fold change", "value": 0.015}
    ]},
    {"sequence": "RRIRNRPPRLPRPRPRPMFRPRP", "values": [
      {"measurement": "shrunken log2 fold change", "value": -0.0515}
    ]},
    {"sequence": "RRIRVRPPRLPRPRPRPKHFPRP", "values": [
      {"measurement": "shrunken log2 fold change", "value": 0.0968}
    ]},
    {"sequence": "RRIRVRPPRLPRPRPRPKRYPRP", "values": [
      {"measurement": "shrunken log2 fold change", "value": -0.078}
    ]},
    {"sequence": "RRIRERPPRLPRPRPRPFIGPRP", "values": [
      {"measurement": "shrunken log2 fold change", "value": -0.0528}
    ]},
    {"sequence": "RRIRQRPPRLPRPRPRPPQIPRP", "values": [
      {"measurement": "shrunken log2 fold change", "value": 0.238}
    ]},
    {"sequence": "RRIRRRPPRLPRPRPRPCVCPRP", "values": [
      {"measurement": "shrunken log2 fold change", "value": 0.082}
    ]},
    {"sequence": "RRIRDRPPRLPRPRPRPPWCPRP", "values": [
      {"measurement": "shrunken log2 fold change", "value": 0.203}
    ]},
    {"sequence": "RRIRKRPPRLPRPRPRPHVHPRP", "values": [
      {"measurement": "shrunken log2 fold change", "value": -0.105}
    ]},
    {"sequence": "RRIRGRPPRLPRPRPRPWVTPRP", "values": [
      {"measurement": "shrunken log2 fold change", "value": 0.0039}
    ]},
    {"sequence": "RRIRERPPRLPRPRPRPNMHPRP", "values": [
      {"measurement": "shrunken log2 fold change", "value": -0.619}
    ]},
    {"sequence": "RRIRHRPPRLPRPRPRPKEAPRP", "values": [
      {"measurement": "shrunken log2 fold change", "value": 0.00884}
    ]},
    {"sequence": "RRIRQRPPRLPRPRPRPKIYPRP", "values": [
      {"measurement": "shrunken log2 fold change", "value": -0.277}
    ]},
    {"sequence": "RRIRNRPPRLPRPRPRPKKIPRP", "values": [
      {"measurement": "shrunken log2 fold change", "value": -0.187}
    ]}
  ]
}
